{
  "source": "paper PMC3296735",
  "proteins": {"B1": {"name": "GIPR (GIP receptor): N62,77Q (protein)", "parent chain": "MTTSPILQLLLRLSLCGLLLQRAETGSKGQTAGELYQRWERYRRECQETLAAAEPPSGLACNGSFDMYVCWDYAAPNATARASCPWYLPWHHHVAAGFVLRQCGSDGQWGLWRDHTQCENPEKNEAFLDQRLILERLQVMYTVGYSLSLATLLLALLILSLFRRLHCTRNYIHINLFTSFMLRAAAILSRDRLLPRPGPYLGDQALALWNQALAACRTAQIVTQYCVGANYTWLLVEGVYLHSLLVLVGGSEEGHFRYYLLLGWGAPALFVIPWVIVRYLYENTQCWERNEVKAIWWIIRTPILMTILINFLIFIRILGILLSKLRTRQMRCRDYRLRLARSTLTLVPLLGVHEVVFAPVTEEQARGALRFAKLGFEIFLSSFQGFLVSVLYCFINKEVQSEIRRGWHHCRLRRSLGEEQRQLPERAFRALPSGSGPGEVPTSRGLSSGTLPGPGNEASRELESYC"}, "B2": {"name": "GIPR (GIP receptor): complete glycosylation-deficient mutant (N62,77Q) (protein)", "parent chain": "MTTSPILQLLLRLSLCGLLLQRAETGSKGQTAGELYQRWERYRRECQETLAAAEPPSGLACNGSFDMYVCWDYAAPNATARASCPWYLPWHHHVAAGFVLRQCGSDGQWGLWRDHTQCENPEKNEAFLDQRLILERLQVMYTVGYSLSLATLLLALLILSLFRRLHCTRNYIHINLFTSFMLRAAAILSRDRLLPRPGPYLGDQALALWNQALAACRTAQIVTQYCVGANYTWLLVEGVYLHSLLVLVGGSEEGHFRYYLLLGWGAPALFVIPWVIVRYLYENTQCWERNEVKAIWWIIRTPILMTILINFLIFIRILGILLSKLRTRQMRCRDYRLRLARSTLTLVPLLGVHEVVFAPVTEEQARGALRFAKLGFEIFLSSFQGFLVSVLYCFINKEVQSEIRRGWHHCRLRRSLGEEQRQLPERAFRALPSGSGPGEVPTSRGLSSGTLPGPGNEASRELESYC"}, "B3": {"name": "GIPR (GIP receptor): glycosylation deficient GIPR (N62,77Q) (protein)", "parent chain": "MTTSPILQLLLRLSLCGLLLQRAETGSKGQTAGELYQRWERYRRECQETLAAAEPPSGLACNGSFDMYVCWDYAAPNATARASCPWYLPWHHHVAAGFVLRQCGSDGQWGLWRDHTQCENPEKNEAFLDQRLILERLQVMYTVGYSLSLATLLLALLILSLFRRLHCTRNYIHINLFTSFMLRAAAILSRDRLLPRPGPYLGDQALALWNQALAACRTAQIVTQYCVGANYTWLLVEGVYLHSLLVLVGGSEEGHFRYYLLLGWGAPALFVIPWVIVRYLYENTQCWERNEVKAIWWIIRTPILMTILINFLIFIRILGILLSKLRTRQMRCRDYRLRLARSTLTLVPLLGVHEVVFAPVTEEQARGALRFAKLGFEIFLSSFQGFLVSVLYCFINKEVQSEIRRGWHHCRLRRSLGEEQRQLPERAFRALPSGSGPGEVPTSRGLSSGTLPGPGNEASRELESYC"}, "B4": {"name": "GIPR (GIP receptor): N77Q (protein)", "parent chain": "MTTSPILQLLLRLSLCGLLLQRAETGSKGQTAGELYQRWERYRRECQETLAAAEPPSGLACNGSFDMYVCWDYAAPNATARASCPWYLPWHHHVAAGFVLRQCGSDGQWGLWRDHTQCENPEKNEAFLDQRLILERLQVMYTVGYSLSLATLLLALLILSLFRRLHCTRNYIHINLFTSFMLRAAAILSRDRLLPRPGPYLGDQALALWNQALAACRTAQIVTQYCVGANYTWLLVEGVYLHSLLVLVGGSEEGHFRYYLLLGWGAPALFVIPWVIVRYLYENTQCWERNEVKAIWWIIRTPILMTILINFLIFIRILGILLSKLRTRQMRCRDYRLRLARSTLTLVPLLGVHEVVFAPVTEEQARGALRFAKLGFEIFLSSFQGFLVSVLYCFINKEVQSEIRRGWHHCRLRRSLGEEQRQLPERAFRALPSGSGPGEVPTSRGLSSGTLPGPGNEASRELESYC"}, "B5": {"name": "GIPR (GIP receptor): N62Q (protein)", "parent chain": "MTTSPILQLLLRLSLCGLLLQRAETGSKGQTAGELYQRWERYRRECQETLAAAEPPSGLACNGSFDMYVCWDYAAPNATARASCPWYLPWHHHVAAGFVLRQCGSDGQWGLWRDHTQCENPEKNEAFLDQRLILERLQVMYTVGYSLSLATLLLALLILSLFRRLHCTRNYIHINLFTSFMLRAAAILSRDRLLPRPGPYLGDQALALWNQALAACRTAQIVTQYCVGANYTWLLVEGVYLHSLLVLVGGSEEGHFRYYLLLGWGAPALFVIPWVIVRYLYENTQCWERNEVKAIWWIIRTPILMTILINFLIFIRILGILLSKLRTRQMRCRDYRLRLARSTLTLVPLLGVHEVVFAPVTEEQARGALRFAKLGFEIFLSSFQGFLVSVLYCFINKEVQSEIRRGWHHCRLRRSLGEEQRQLPERAFRALPSGSGPGEVPTSRGLSSGTLPGPGNEASRELESYC"}, "B6": {"name": "GLP-1R (GLP1R): N63,82,115Q (protein)", "parent chain": "MAGAPGPLRLALLLLGMVGRAGPRPQGATVSLWETVQKWREYRRQCQRSLTEDPPPATDLFCNRTFDEYACWPDGEPGSFVNVSCPWYLPWASSVPQGHVYRFCTAEGLWLQKDNSSLPWRDLSECEESKRGERSSPEEQLLFLYIIYTVGYALSFSALVIASAILLGFRHLHCTRNYIHLNLFASFILRALSVFIKDAALKWMYSTAAQQHQWDGLLSYQDSLSCRLVFLLMQYCVAANYYWLLVEGVYLYTLLAFSVLSEQWIFRLYVSIGWGVPLLFVVPWGIVKYLYEDEGCWTRNSNMNYWLIIRLPILFAIGVNFLIFVRVICIVVSKLKANLMCKTDIKCRLAKSTLTLIPLLGTHEVIFAFVMDEHARGTLRFIKLFTELSFTSFQGLMVAILYCFVNNEVQLEFRKSWERWRLEHLHIQRDSSMKPLKCPTSSLSSGATAGSSMYTATCQASCS"}, "B7": {"name": "GLP-1R (GLP1R): complete glycosylation-deficient mutant (N63,82,115Q) (protein)", "parent chain": "MAGAPGPLRLALLLLGMVGRAGPRPQGATVSLWETVQKWREYRRQCQRSLTEDPPPATDLFCNRTFDEYACWPDGEPGSFVNVSCPWYLPWASSVPQGHVYRFCTAEGLWLQKDNSSLPWRDLSECEESKRGERSSPEEQLLFLYIIYTVGYALSFSALVIASAILLGFRHLHCTRNYIHLNLFASFILRALSVFIKDAALKWMYSTAAQQHQWDGLLSYQDSLSCRLVFLLMQYCVAANYYWLLVEGVYLYTLLAFSVLSEQWIFRLYVSIGWGVPLLFVVPWGIVKYLYEDEGCWTRNSNMNYWLIIRLPILFAIGVNFLIFVRVICIVVSKLKANLMCKTDIKCRLAKSTLTLIPLLGTHEVIFAFVMDEHARGTLRFIKLFTELSFTSFQGLMVAILYCFVNNEVQLEFRKSWERWRLEHLHIQRDSSMKPLKCPTSSLSSGATAGSSMYTATCQASCS"}, "B8": {"name": "GLP-1R (GLP1R): N82Q (protein)", "parent chain": "MAGAPGPLRLALLLLGMVGRAGPRPQGATVSLWETVQKWREYRRQCQRSLTEDPPPATDLFCNRTFDEYACWPDGEPGSFVNVSCPWYLPWASSVPQGHVYRFCTAEGLWLQKDNSSLPWRDLSECEESKRGERSSPEEQLLFLYIIYTVGYALSFSALVIASAILLGFRHLHCTRNYIHLNLFASFILRALSVFIKDAALKWMYSTAAQQHQWDGLLSYQDSLSCRLVFLLMQYCVAANYYWLLVEGVYLYTLLAFSVLSEQWIFRLYVSIGWGVPLLFVVPWGIVKYLYEDEGCWTRNSNMNYWLIIRLPILFAIGVNFLIFVRVICIVVSKLKANLMCKTDIKCRLAKSTLTLIPLLGTHEVIFAFVMDEHARGTLRFIKLFTELSFTSFQGLMVAILYCFVNNEVQLEFRKSWERWRLEHLHIQRDSSMKPLKCPTSSLSSGATAGSSMYTATCQASCS"}, "B9": {"name": "GLP-1R (GLP1R): N63Q (protein)", "parent chain": "MAGAPGPLRLALLLLGMVGRAGPRPQGATVSLWETVQKWREYRRQCQRSLTEDPPPATDLFCNRTFDEYACWPDGEPGSFVNVSCPWYLPWASSVPQGHVYRFCTAEGLWLQKDNSSLPWRDLSECEESKRGERSSPEEQLLFLYIIYTVGYALSFSALVIASAILLGFRHLHCTRNYIHLNLFASFILRALSVFIKDAALKWMYSTAAQQHQWDGLLSYQDSLSCRLVFLLMQYCVAANYYWLLVEGVYLYTLLAFSVLSEQWIFRLYVSIGWGVPLLFVVPWGIVKYLYEDEGCWTRNSNMNYWLIIRLPILFAIGVNFLIFVRVICIVVSKLKANLMCKTDIKCRLAKSTLTLIPLLGTHEVIFAFVMDEHARGTLRFIKLFTELSFTSFQGLMVAILYCFVNNEVQLEFRKSWERWRLEHLHIQRDSSMKPLKCPTSSLSSGATAGSSMYTATCQASCS"}, "B10": {"name": "GLP-1R (GLP1R): N115Q (protein)", "parent chain": "MAGAPGPLRLALLLLGMVGRAGPRPQGATVSLWETVQKWREYRRQCQRSLTEDPPPATDLFCNRTFDEYACWPDGEPGSFVNVSCPWYLPWASSVPQGHVYRFCTAEGLWLQKDNSSLPWRDLSECEESKRGERSSPEEQLLFLYIIYTVGYALSFSALVIASAILLGFRHLHCTRNYIHLNLFASFILRALSVFIKDAALKWMYSTAAQQHQWDGLLSYQDSLSCRLVFLLMQYCVAANYYWLLVEGVYLYTLLAFSVLSEQWIFRLYVSIGWGVPLLFVVPWGIVKYLYEDEGCWTRNSNMNYWLIIRLPILFAIGVNFLIFVRVICIVVSKLKANLMCKTDIKCRLAKSTLTLIPLLGTHEVIFAFVMDEHARGTLRFIKLFTELSFTSFQGLMVAILYCFVNNEVQLEFRKSWERWRLEHLHIQRDSSMKPLKCPTSSLSSGATAGSSMYTATCQASCS"}, "B11": {"name": "GLP-1R (GLP1R): glycosylation deficient GLP-1R (N63,82,115Q) (protein)", "parent chain": "MAGAPGPLRLALLLLGMVGRAGPRPQGATVSLWETVQKWREYRRQCQRSLTEDPPPATDLFCNRTFDEYACWPDGEPGSFVNVSCPWYLPWASSVPQGHVYRFCTAEGLWLQKDNSSLPWRDLSECEESKRGERSSPEEQLLFLYIIYTVGYALSFSALVIASAILLGFRHLHCTRNYIHLNLFASFILRALSVFIKDAALKWMYSTAAQQHQWDGLLSYQDSLSCRLVFLLMQYCVAANYYWLLVEGVYLYTLLAFSVLSEQWIFRLYVSIGWGVPLLFVVPWGIVKYLYEDEGCWTRNSNMNYWLIIRLPILFAIGVNFLIFVRVICIVVSKLKANLMCKTDIKCRLAKSTLTLIPLLGTHEVIFAFVMDEHARGTLRFIKLFTELSFTSFQGLMVAILYCFVNNEVQLEFRKSWERWRLEHLHIQRDSSMKPLKCPTSSLSSGATAGSSMYTATCQASCS"}},
  "conditions_in_all_cases": "glycan lost",
  "key": {"[1]": {"assay": "cell surface biotinylation, western blot"}, "[2]": {"assay": "cell surface ELISA, HA tag, CHO"}, "[3]": {"assay": "total lysate western blot"}, "[4]": {"assay": "calnexin co-immunolabelling intensity correlation (ER retention)"}, "[5]": {"assay": "cycloheximide chase western; protein remaining"}},
  "data": [
    {"protein": "B1", "values": [
      {"measurement": "localisation_or_trafficking", "setting": "[1]; control: wild type GIPR-V5", "value": "abolishes"},
      {"measurement": "localisation_or_trafficking", "setting": "[2]; control: wild type HA-GIPR", "value": "abolishes"},
      {"measurement": "expression_or_secretion", "setting": "[3]; control: wild type GIPR-V5", "value": "decreases"}
    ]},
    {"protein": "B2", "values": [
      {"measurement": "localisation_or_trafficking, other: Pearson correlation", "setting": "[4]; control: wild type GIPR", "value": "increases, about 80% vs almost no correlation"}
    ]},
    {"protein": "B3", "values": [
      {"measurement": "degradation_or_half_life", "setting": "[5]; control: wild type GIPR-V5", "value": "decreases"}
    ]},
    {"protein": "B4", "values": [
      {"measurement": "localisation_or_trafficking", "setting": "[1]; control: wild type GIPR-V5", "value": "decreases"},
      {"measurement": "localisation_or_trafficking", "setting": "[2]; control: wild type HA-GIPR", "value": "decreases"}
    ]},
    {"protein": "B5", "values": [
      {"measurement": "localisation_or_trafficking", "setting": "[1]; control: wild type GIPR-V5", "value": "decreases"},
      {"measurement": "localisation_or_trafficking", "setting": "[2]; control: wild type HA-GIPR", "value": "decreases"}
    ]},
    {"protein": "B6", "values": [
      {"measurement": "localisation_or_trafficking", "setting": "[1]; control: wild type GLP-1R-V5", "value": "decreases"},
      {"measurement": "localisation_or_trafficking", "setting": "[2]; control: wild type HA-GLP-1R", "value": "decreases"},
      {"measurement": "expression_or_secretion", "setting": "[3]; control: wild type GLP-1R-V5", "value": "decreases"}
    ]},
    {"protein": "B7", "values": [
      {"measurement": "localisation_or_trafficking, other: Pearson correlation", "setting": "[4]; control: wild type GLP-1R", "value": "increases, just under 50% vs low level of correlation"}
    ]},
    {"protein": "B8", "values": [
      {"measurement": "localisation_or_trafficking", "setting": "[2]; control: wild type HA-GLP-1R", "value": "no change"}
    ]},
    {"protein": "B9", "values": [
      {"measurement": "localisation_or_trafficking", "setting": "[2]; control: wild type HA-GLP-1R", "value": "no change"}
    ]},
    {"protein": "B10", "values": [
      {"measurement": "localisation_or_trafficking", "setting": "[2]; control: wild type HA-GLP-1R", "value": "no change"}
    ]},
    {"protein": "B11", "values": [
      {"measurement": "degradation_or_half_life", "setting": "[5]; control: wild type GLP-1R-V5", "value": "decreases"}
    ]}
  ]
}
